Assay [1] deals with surface-immobilized biotinylated microtubules, Q2XVP4;Q767L7. The assay can be described thus: fluorescence intensity of GFP-tagged MAP9-MTBD on surface-immobilized MTs (fluorescence microscopy). The note with it: 100 nM MAP9 construct (stated for panel h); parent: est. 0.72; read off a plot.
For assay [2], the target named is surface-immobilized biotinylated microtubules (pig) (UniProt Q2XVP4). Kind of assay: TIRF microscopy, fluorescence intensity of GFP-tagged MAP on microtubules; biotinylated MTs held on a streptavidin-coated coverslip; one concentration of WT or mutant MAP9 construct (100 nM in Fig. 1h-i and Extended Data Fig. 6b); BRB80, 100 mM salt.

The results in this text go back to doi:10.1101/2025.11.17.688911.

For the substance “MAP9-MTBD (Human MAP9 (302–647)::GFP::strepII) (from UniProt Q49MG5) W432A; W476A; W519A; W563A; W606A”, the response in assay [1] was found to be 0.04 a.u. Take “MAP9-MTBD (Human MAP9 (302–647)::GFP::strepII) (from UniProt Q49MG5) F473A; F516A”: the response in assay [1] is 0.17 a.u. For “MAP9-MTBD R1R2 (from UniProt Q49MG5 302-647) (domain or fragment)”, in assay [2], the percent reduction of MT binding against WT MAP9-MTBD was 80%.
